Values quoted from earlier work as cited in publication PMC10213776.

Molecular target: IL-18 (Homo sapiens) (UniProt Q14116)
Sequence (Q14116 37-193): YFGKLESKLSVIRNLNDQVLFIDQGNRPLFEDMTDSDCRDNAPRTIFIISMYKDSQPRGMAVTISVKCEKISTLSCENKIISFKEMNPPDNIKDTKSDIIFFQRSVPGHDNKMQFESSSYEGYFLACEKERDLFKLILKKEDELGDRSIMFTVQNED

IL-18BP, sequence (O95998 31-194): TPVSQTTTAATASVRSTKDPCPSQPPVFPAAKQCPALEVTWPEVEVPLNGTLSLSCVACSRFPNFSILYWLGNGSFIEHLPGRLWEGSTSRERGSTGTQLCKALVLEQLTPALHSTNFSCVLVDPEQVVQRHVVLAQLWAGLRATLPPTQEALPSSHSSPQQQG

Substance: IL-18BP (from UniProt O95998)
- Kd: 0.4 nM
